From patent publication US20260258115A1
Where a chain is given by its changes, count along the chain named.

B1: ADI-41197 (antibody, V domains shown)
VH: QVQLVQSGAEVKKPGASVKVSCKASGYTFSGYYMHWVRQAPGQGLEWVGRINPKSGDTVYAQKFQGRVTMTRDTSISTAYMELSRLISDDTAKYYCARQEDHYYGSGNFYNSFDFWGQGTLVTVSS
VL: ETTLTQSPSSLSASVGDRVTITCRASQSISSNLNWYQQKPGKAPKLLIYGASTLQSGVPSRFSGSGSGTDFTLTISSLQPEDLATYYCQQSYSNPGKTFGQGTKVDIK
B2: ADI-41181 (antibody, V domains shown)
VH: QVQLVQSGAEVKKPGSSVKVSCKASGGSFSSYTLNWVRQAPGQGLEWMGRFVPIVGIANYAQKFQGRVTITADKSTSTVYMELSSLRSEDTAVYYCATAPTAYCSGDCYSLFDPWGQGTLVTVSS
VL: QSVLIQPASVSGSPGQSITISCTGISSDVGSYNLVSWYQQHPGKAPKLIIYEVNKRPSGVSNRFSGSKSGNTASLTISGLQAEDEADYYCCSYAVSRTSLYVFGTGTKVTVL
B3: ADI-41190 (antibody, V domains shown)
VH: QVQLVQSGAEVKKPGASVKVSCKAFGYTFRSYDMQWVRQAPGQRLEWMGWINAVNGDTKYSQKFQGRVTITRDTSATTVYMELSSLRSEDTAVYYCARWGRFWNSRSLDYYAMDVWGQGTTVTVSS
VL: DIVMTQSPGTLSLSPGERATLSCRASQSISSSYLVWYQHKPGQAPRLLIYGASTRATDIPDRFSGSGSGTDFTLTISRLEPEDFAVYYCQQYGSSPLTFGQGTRLEIK
B4: ADI-41201 (antibody, V domains shown)
VH: EVQLLESGGGLVQPGGSLRLSCAASGFAFDIYSMNWVRQAPGKGLEWLSYISSRGETIYYADSVKGRFTISRDNARNSLYLQMNGLRDEDTATYYCYYYGSGISSHGGAFDYWGQGTLVTVSS
VL: DIVMTQTPATLSLSPGERATLTSRASQSVSSFLAWYQQKPGQAPRLLIYDVSNRATGVPARFSGSGSGTDFTLTISSLEPEDIAVYYCQQRNTWPAITFGQGTKVEIK
B5: ADI-41169 (antibody, V domains shown)
VH: EVQLVESGAEVKKPGESLKISCEAFGYSFTSYWIGWVRQVPGRGLEWIGVIYPGDSDIRYTPSFRGQVTISADRSISTAYLQWNNLKASDTAMYYCARPGRDINYYHSRDYGALDIWGQGTTVTVSS
VL: DIQLTQSPDSLAVSLGERVTINCKSSQSFLYSSNNKNYLAWYQQKPGQPPKLLIYWASVRESGVPDRFSGSGSGTDFTLTISSLQAEDVAVYYCQEYYSPPMFTFGQGTKVEIK
B6: ADI-41200 (antibody, V domains shown)
VH: EVQLLESGGGLVKPGGSLRLSCAASGLTFSDHDMSWVRQAPGKGLEWVSGIGGSGSNTYYAGSVKGRFTISRDNSKNTLYLQMDSLRVEDTAVYYCAKDPYGDYRDYYGMDVWGQGTTVTVSS
VL: DIVLTQTPFSLPVTPGEPASISCRSSQSLLKSNGYNYLDWFLQKPGQSPQLLIYLGSNRASGVPDRFSGSGSGTDFTLKISRVEAEDVGVYYCMQTLQALYTFGQGTKVEIK
B7: ADI-41184 (antibody, V domains shown)
VH: EVQLLETGGGLVQPGGSLRLSCAASGFTFSSYDMNWVRQAPGKGLEWVSTISGSGGPTYYAGSVKGRFTISRDNSKNTLYLQMNSLRADDTAVYYCAKAQLYDTSGYYLYYFDYWGQGTLVTVSS
VL: DIRMTQSPSSLSASVGDRVTITCRASQRITSYLNWYQQKPGKAPKLLIYAASSLQSGVPSRFSGSGSGTDFTLTISSLQPEDFATYFCQQSYSTSFTFGPGTKVDIK
B8: ADI-41179 (antibody, V domains shown)
VH: QVQLVQSGAEVKKPGSSVKISCKASGGTFSSHPISWVRQAPGQGLEWMGRIVPIFGIANYAQKFQGRVTMIADKSTNTAYMELSNLRSEDTAVYYCANPVYDSSGFQWGQGTLVTVSS
VL: QPVLTQPRSVSGSPGQSVTISCTGTSGDGGFYNYVSWYQQHPGKTPKLMIYDVDQRPSGVPDRFSGSKSGNTASLTISGLQAEDEADYYCCSYPGNPLYVFGTGTKVTVL
B9: ADI-41202 (antibody, V domains shown)
VH: B8 VH with Q6E, N98S
VL: B8 VL with P2S, V3A, T5I, V107L
B10: ADI-41173 (antibody, V domains shown)
VH: QVQLVQSGAEMKKPGSSAKVSCKASGGTLSSYAINWVRQAPGQGLEWMGGIIPIFGTTKYAPKFQDRVTITVDESTSTAYMELSSLRSEDTAVYYCSRESSTWDVAHYFDYWGQGTLVTVSS
VL: DIVMTQTPSAISASVGDRVTITCRASQGISNYLAWVQQKPGKVPKRLIYGASSLQSGVPSRFSGSGSGTEFTLTISSLQPEDFATYYCLQHNSYPYTFGQGTKVEIK
B11: ADI-41185 (antibody, V domains shown)
VH: QVQLQQWGAGLLKPSETLSLTCAVYGGSFSSYYYSWIRQPPGKGLEWIGEINQSGSTNYNPSLKSRVTISVDTSKNEFSLKLSSVTAADTAVYYCARIVREFNTRWYDYYYMDVWGKGTTVTVSS
VL: DIRVTQSPATLSLSPGERATLSCRTSQSISSSYLAWYQQKFGQAPRLLIYGASSRATGIPDRFSGSGSGTDFTLTISRLEPEDFAVYYCQQYGISPPMYTFGQGTKVEIK
B12: ADI-41183 (antibody, V domains shown)
VH: QVQLQESGAGLVKPSETLSLTCGVYGESFSGHSWSWIRQPPGRGLEWIGEINQSGTTKYNPSLRSRVTISVDRSKNEFSLKVSSVTAADTAVYFCARYFRSFYTIGPDYYYMDVWGKGTTVTVSS
VL: EIVLTQSPSSLSASVGDRVTITCRASQNINNYLNWYQQKPGKAPRLLIYAASSLQSGVPSRFTGSGSGTDFTLTIRSLQSEDFATYYCQHSYSSSLLTFGGGTKVDIK
B13: ADI-41186 (antibody, V domains shown)
VH: EVQLLESGAEVKKPGESLKISCKGSGYSFSSYWIAWVRQMPGKGLEWMGIIYPSDSDTKYSPSFQGQVTISADKSISTAYLQWSSLKASDTAMYYCARQAGIQRPLDYWGQGTLVTVSS
VL: EIVMTQSPATLSVSPGERATLSCRASQSVRSNLAWYQQKPGQAPRLLIYDASTRATGISARFSGSGSGTEFTLTISSLQSEDFAVYYCQQFHNWPPYTFGQGTKVEIK
B14: ADI-41175 (antibody, V domains shown)
VH: EVQLLESGGGVVQPGRSLRLSCATSGFTFSSYGMHWVRQAPGKGLEWVAVIYYEGSNKYYGDSVKGRFTISRDNSKSTLYLQMNRLRAEDTAVYYCARRPAGGFDYWGPGTLVTVSS
VL: EIVMTQSPLSLPVTPGEPASISCRSSQNLLNSNGYNYLDWYLQKPGQSPQLLIYLGSNRASGVPDRFSGSGSGTDFTLKISRVEAEDVGVYYCMQALQTPYTFGQGTKLEIK
B15: ADI-41182 (antibody, V domains shown)
VH: QVQLVQSGAEVKKPGESLKISCQGSGYSFTSYWIGWVRQMPGKDLEWMGIIYPSDSDTRYSPSFQGQVTISVDKSINTAYLQWTSLKASDTAMYYCARCDGAVYWYFDLWGRGTLVTVSS
VL: EIVLTQSPATLSVSPGERVTLSCRASRSVSSHLAWYQQKPGQAPRLLMYGASTRATGIPARFSGSGSGTEFTLTISSLQSEDFGVYYCQQYNNWPPALTFGGGTKLEIK
B16: ADI-41171 (antibody, V domains shown)
VH: EVQLVESGPGLVKPSQTLSLTCTVSGGSISSGGDYWSWVRQRPGKGLEWIGYIYNSGSGYYNPSLKNRVSMSMHTSRNQFSLRLSSVTAADTAFYYCARDPFYRSGGIHYFDYWGQGALVTVSS
VL: DIVLTQTPGTLSLSPGEGATLSCRASPSVGSTSLAWYQQKPGQAPRLLIYGASSRATGIPDRFSGSGSGTDFTLTISRLEPEDFAVYYCQQDGGLPITFGLGTRLEIK
B17: ADI-41189 (antibody, V domains shown)
VH: QVQLVESGGGLVKPGGSLRLSCAASGFTFSSYSMNWVRQAPGKGLEWVSSMSSSSGYIDYADSVKGRFTISRDNAKNSLYLQMNSLRVEDTAVYYCARRNAVVVPSLMVVADYYYGMDVWGQGTTVTVSS
VL: QSVLTQPPSVSGAPGQRVTISCTGSSSNIGAGYDVHWYQQLPGTAPKLLIYGNSNRPSGVPDRFSGSKSGTSASLAITGLQAEDEADYYCQSYDTSLSGPGYVFGTGTKLTVL
B18: ADI-41170 (antibody, V domains shown)
VH: EVQLLESGGGLIQPGGSLRLSCAASGFTFNNYVMSWVRQAPGKGLEWVAAISSSGVSTYYAASVKGRFTISRDNSKNMLYVQLNSLRAEDTAVYYCAKETGSYYYFDSWGQGTLVTVSS
VL: ETTLTQSPSTLSGSVGDRVTITCRASESISSWLAWYQQKPGKAPKLLIYKASNLESGVPSRFSGSGSGTEFTLTISSLQPDDFATYYCQQYNSYLITFGQGTRLEIK
B19: ADI-41196 (antibody, V domains shown)
VH: EVQLVESGGGLVQPGGSLRLSCIVSGFPFNTYAMSWVRQAPGKGLEWVSVVSASGGNTDYADSVKGRFTISRDNSKKTLYLQMNSLRAEDTAVYYCARTESNTLAPSWSGRYVTDWYFDLWGRGTLVTVSS
VL: EIVMTQSPSSLSASVGDRVTITCRASQSISSFLNWYQQKPGKAPKLLISAASSLQSGVPSRFSGSGSGTDFTLTISSLQPEDFATYYCQQSYSIPTFGQGTRLEIK

The binders below were run against Respiratory Syncytial Virus fusion glycoprotein (RSV F) on RSV-A2 virus (Respiratory Syncytial Virus subtype A (RSV-A2)) (assay: cell-based or functional assay).

| Binder | Neutralization IC50 (RSV subtype A) [µg/mL] |
| --- | --- |
| B1 | 0.27 |
| B2 | > 25 |
| B3 | > 25 |
| B4 | > 25 |
| B5 | > 25 |
| B6 | > 25 |
| B7 | > 25 |
| B8 | > 25 |
| B9 | > 25 |
| B10 | 0.08 |
| B11 | > 25 |
| B12 | > 25 |
| B13 | > 25 |
| B14 | > 25 |
| B15 | > 25 |
| B16 | > 25 |
| B17 | > 25 |
| B18 | > 25 |
| B19 | > 25 |

Each binder was assayed against RSV postfusion F (postF), F deltaFP (Respiratory Syncytial Virus) (assay: BLI, IgG on anti-human IgG sensor, 100 nM antigen).

| Binder | Kd [nM] |
| --- | --- |
| B1 | 0.531 |
| B2 | 0.936 |
| B3 | 0.971 |
| B4 | 0.637 |
| B5 | 1.19 |
| B6 | 0.318 |
| B7 | 0.532 |
| B8 | 0.342 |
| B9 | 0.333 |
| B10 | 0.294 |
| B11 | 0.809 |
| B12 | 1 |
| B13 | 0.703 |
| B14 | 1.07 |
| B15 | 0.462 |
| B16 | 4.26 |
| B17 | 0.608 |
| B18 | 2.64 |
| B19 | 0.595 |

The binders below were run against RSV prefusion F (preF), DS-Cav1 (Respiratory Syncytial Virus) (assay: BLI, IgG on anti-human IgG sensor, 100 nM antigen).

| Binder | Kd [nM] |
| --- | --- |
| B1 | 0.795 |
| B2 | 1.95 |
| B3 | 2.29 |
| B4 | 3.82 |
| B5 | 4.94 |
| B6 | 0.334 |
| B7 | 2.85 |
| B8 | 0.948 |
| B9 | 1.12 |
| B10 | 0.315 |
| B11 | 3.23 |
| B12 | 4.08 |
| B13 | 3.01 |
| B14 | 4.25 |
| B15 | 2.55 |
| B16 | 9.8 |
| B17 | 2.86 |
| B18 | 5.67 |
| B19 | 2.92 |
